We go through eight molecules from patent publication US20210198347A1 (Chugai, published 2021).

The test concerns the target T1, Native human C1r enzyme (Comptech A102) (human, UniProt P00736 18-705).
T1 construct: mature
T1 sequence (looked up): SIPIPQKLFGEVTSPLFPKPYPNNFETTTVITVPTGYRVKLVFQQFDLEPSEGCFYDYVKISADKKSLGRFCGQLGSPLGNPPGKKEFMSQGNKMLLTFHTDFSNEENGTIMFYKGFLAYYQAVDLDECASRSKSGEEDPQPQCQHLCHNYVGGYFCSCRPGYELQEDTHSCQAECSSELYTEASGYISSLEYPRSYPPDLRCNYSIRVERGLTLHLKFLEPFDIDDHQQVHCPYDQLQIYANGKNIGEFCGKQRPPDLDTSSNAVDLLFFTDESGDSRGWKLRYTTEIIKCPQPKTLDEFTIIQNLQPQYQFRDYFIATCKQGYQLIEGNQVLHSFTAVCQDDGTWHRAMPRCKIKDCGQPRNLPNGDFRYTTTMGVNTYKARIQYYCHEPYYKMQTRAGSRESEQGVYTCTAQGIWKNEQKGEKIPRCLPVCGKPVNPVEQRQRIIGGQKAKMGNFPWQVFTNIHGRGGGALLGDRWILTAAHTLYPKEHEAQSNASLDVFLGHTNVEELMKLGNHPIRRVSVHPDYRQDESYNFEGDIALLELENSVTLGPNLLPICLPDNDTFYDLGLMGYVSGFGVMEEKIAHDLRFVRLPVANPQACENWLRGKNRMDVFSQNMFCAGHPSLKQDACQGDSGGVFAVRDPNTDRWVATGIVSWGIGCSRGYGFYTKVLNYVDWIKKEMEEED
Nature of the test: SPR (BIACORE T200, 37 degrees C, pH 7.4), antibody captured by protein A/G, C1r 25 nM as a dimer. The method, then:
The binding specificities of human C1r CUB1-EGF-CUB2 binders are determined at 37 degrees C. using BIACORE® T200 instrument (GE Healthcare). Recombinant Protein A/G (Pierce) is immobilized onto all flow cells of a CM4 sensor chip using an amine coupling kit (GE Healthcare). Antibodies and analytes are prepared in 7(+) buffer (20 mM ACES, 150 mM NaCl, 1.2 mM CaCl₂, 0.05% Tween 20, 1 mg/mL BSA (IgG-free), 1 mg/mL CMD, 0.005% NaN₃, pH 7.4). Each antibody is captured onto the sensor surface by protein A/G. Antibody capture levels are aimed at 100 resonance unit (RU). Native human C1r enzyme (Comptech A102) (at 25 nM as a dimer) or recombinant human C1r CCP1-CCP2-SP-FLAG (at 50 nM as a monomer) is injected, followed by dissociation. Sensor surface is regenerated each cycle with 10 mM Glycine-HCl pH 1.5. It may be determined that C1r CUB1-EGF-CUB2 binders bound to the native human C1r enzyme , but not recombinant human C1r CCP1-CCP2-SP-FLAG, which is a truncated protein lacking the CUB1-EGF-CUB2 domain of C1r.

B1: COR0067ff-SG1148 (antibody, human IgG1, kappa, V domains shown)
VH: QSLEESGGGLVQPEGSLTLTCKASGIDFSSNAMCWVRQAPGKGLEWIGCIYTGSTTIWYASWAKGRFTISKTSSTTVTLQLNSLTVADTATYFCARRDSSSGYAFKLWGPGTLVTVSS
VL: DIVMTQTPSSVSAAVGGTVTIKCQASENIYSNLAWYQQKSGQPPNLLIYGASTLESGVPSRFKGSGSGTEFTLTISDLECADAAIYYCQCTYDDSSTFGGGTKVEIKR
notes: Anti-C1r antibody
Take B1: the binding result was “binds”.

B2: COR0338gg-SG1148 (antibody, human IgG1, kappa, V domains shown)
VH: QSLEESGGGLVQPEGSLTLTCKASGIDFSSNAMCWVRQAPGKGLEWIACIYTGSTTIWYATWAKGRFTISKTSSTTVTLQLNSLTVADTATYFCARRASSSGYAFKLWGPGTLVTVSS
VL: DVVMTQTPFSVSAAVGGTVTIKCQASESIYSNLAWYQQKPGQPPNLLIYGASTLESGVPSRFKGSGSGTEFTLTISDLECDDAAIYYCQCTYDDSSTFGGGTKVEIKR
notes: Anti-C1r antibody
On to B2, for which the binding result was “binds”.

B3: COR0278bb-SG1148 (antibody, human IgG1, kappa, V domains shown)
VH: QSLEESGGRLVTPGTPLTLTCTASGFSLSSYDMTWVRQAPGKGLEWIGIIYTLGSAYYASWAKGRFTISRTSTTVDLKMTSPTTEDTATYFCARGGDSYGAVDTAFDLWGPGTLVTVSS
VL: AQVLTQTPSPVSAAVGGTVTISCQSSPSVYSNYLSWYQQKPGQPPKLLIYRASRLASGVPSRFKGSGSGTQFTLTISEVQCDDAATYYCQGYFGNGINAFGGGTKVEIKR
notes: Anti-C1r antibody
For B3, the binding result is recorded as “binds”.

B4: COR0011bb-SG1148 (antibody, human IgG1, kappa, V domains shown)
VH: QSLEESGGRLVTPGTPLTLTCTASGFTFSGYYMCWVRQTPGKGLEYIGIIASSGNTYYANWAKGRFTISKTSSTTVDLKMTSLTTEDTATYFCAKPESDYVNGMGLWGPGTLVTVSS
VL: DIVMTQTPASVSDPVGGTVTIKCQASQSIYNLLSWYQQKPGQRPKLLIYDASKLASGVPSRFKGSGYGTDFTLTISDLGCADAATYYCQSNYGYSRTDDTFFYGFGGGTKVEIKR
notes: Anti-C1r antibody
For the molecule B4, the binding result is on record as “binds”.

B5: COR0208cc-SG1148 (antibody, human IgG1, kappa, V domains shown)
VH: QSVEESGGRLVTPGTPLTLTCTVSGFSLSNYYMNWVRQAPGKGLEWIGIIASDDNTWYASWAKGRFTISKTSTTVDLKITSPTTEDTATYFCARDLDVGYGSGWYDLWGQGTLVTVSS
VL: AAVLTQTPSPVSVAVGGTVTINCQASQSVYNNNYLAWYQQEPGHRPKLLIYRASKLASGVPSRFSGSGSGTQFTLTISGVQCDDAATYYCLGGYDDFTDTTFGGGTKVEIKR
notes: Anti-C1r antibody; also called COR208; COR208cc(-SG1148)
In the case of B5, the binding result is recorded as “binds”.

B6: COR0212bb-SG1148 (antibody, human IgG1, kappa, V domains shown)
VH: QEQLKESGGGLVTPGGTLTLTCTASGFSLSSYDMSWVRQAPGKGLDWIGIINTGGSAYYATWAKGRFTISKTSTTVDLKITSPTTEDTATYFCGRKINDAFDPWGPGTLVTVSS
VL: AQVLTQTPFSVSAAVGGTVTINCQASESISSNLAWYQQKPGQPPKLLIYDASDLASGVPSRFKGSGSGKQFTLTISGVQCDDAATYFCQHGWIYDTIDSNCFGGGTKVEIKR
notes: Anti-C1r antibody
As to B6, the binding result is listed as “binds”.

B7: COR0205gg-SG1148 (antibody, human IgG1, kappa, V domains shown)
VH: QSLEESGGGLFKPTDTLTLTCTVSGFSLSSNAMSWVRQAPGKGLEYIGIIYLTGVTYYATWAKGRFTISKTSTTVDLKITSPTTEDTATYFCAGGEFSLWGPGTLVTVSS
VL: DIIMTQTPASVEAAVGGTVTIKCQASQGIDNYFSWHQQKPGQPPKLLIYKASTLASGVSSRFKGSGSGTEFTLTISDLECDDAATYYCQCTYGYNINDNYGNAFGGGTKVEIKR
notes: Anti-C1r antibody; also called COR205gg(-SG1148)
As to B7, the binding result is on record as “binds”.

B8: COR0058bb-SG1148 (antibody, human IgG1, kappa, V domains shown)
VH: QSVEESGGRLVTPGTPLTLTCTASGFDISNYNMQWVRQSPGKGLEWIGIIWSGGYTDYANWAKGRFTISATSTTVDLKSTSPTTEDTATYFCARQGANFGDYTVDLWGPGTLVTVSS
VL: AYDMTQTPASVEVAVGGTVTIKCQASQSIRSSLAWYQQKPGQRPKLLIYRASTLASGVSSRFKGSGSGTQFTLTISGVECADAATYYCQQGYSNINVDNTFGGGTKVEIKR
notes: Anti-C1r antibody
For B8, the binding result is “binds”.
